In patent publication US8809287B2, “Compositions and methods for altering Wnt autocrine signaling” (Icahn School of Medicine at Mount Sinai, priority 2004, dated 2014):

B1: DKK1: Dickkopf-1, secreted Wnt antagonist protein that binds Wnt co-receptor LRP6; used purified, in conditioned media or retrovirally expressed with HA tag (protein, UniProt O94907 32-266, looked up)
Dickkopf-related protein 1: TLNSVLNSNAIKNLPPPLGGAAGHPGSAVSAAPGILYPGGNKYQTIDNYQPYPCAEDEECGTDEYCASPTRGGDAGVQICLACRKRRKRCMRHAMCCPGNYCKNGICVSSDQNHFRGEIEETITESFGNDHSTLDGYSRRTTLSSKMYHTKGQEGSVCLRSSDCASGLCCARHFWSKICKPVLKEGQVCTKHRRKGSHGLEIFQRCYCGEGLSCRIQKDHHQASNSSRLHTCQRH
modifications: HA tag in some uses
B2: FRP1: human secreted Frizzled Related Protein 1, Wnt antagonist; expressed from pBabe-derived retrovirus with carboxy-terminal HA tag (protein, UniProt Q8N474 32-314, looked up)
Secreted frizzled-related …: SEYDYVSFQSDIGPYQSGRFYTKPPQCVDIPADLRLCHNVGYKKMVLPNLLEHETMAEVKQQASSWVPLLNKNCHAGTQVFLCSLFAPVCLDRPIYPCRWLCEAVRDSCEPVMQFFGFYWPEMLKCDKFPEGDVCIAMTPPNATEASKPQGTTVCPPCDNELKSEAIIEHLCASEFALRMKIKEVKKENGDKKIVPKKKKPLKLGPIKKKDLKKLVLYLKNGADCPCHQLDNLSHHFLIMGRKVKSQYLLTAIHKWDKKNKEFKNFMKKMKNHECPTFQSVFK
modifications: C-terminal HA tag
notes: human secreted Frizzled Related Protein 1, Wnt antagonist; expressed from pBabe-derived retrovirus with carboxy-terminal HA tag

Key:
[1] = system: uncomplexed β-catenin; experiment: Uncomplexed β-catenin in HCC38 and other positive breast cancer cell lines; assay type: cell-based, human; conditions: HCC38 and several positive breast cancer lines; DKK1-containing conditioned media for two hours
Description: (§1) β-catenin levels were assessed using the GST-E-cadherin binding assay, which has been previously described (Bafico et al., (1998) Oncogene 16:2819-2825). Briefly, bacterially expressed GST-E-cadherin was purified with glutathione-Sepharose beads and incubated with 1 mg of each cell lysate. The GST-E-cadherin/[…]-catenin complex bound to the beads was recovered by centrifugation and analyzed by SDS-PAGE followed by immunoblotting. The uncomplexed β-catenin was detected using a monoclonal antibody to β-catenin (Transduction Laboratories). Unphosphorylated β-catenin was detected with a monoclonal antibody specific for β-catenin dephosphorylated at residues 27-37 (Alexis, Läufelfingen, Switzerland). FRP1-HA and DKK1-HA were detected with an anti-HA monoclonal antibody (Hybridoma Center, Mount Sinai School of Medicine, New York).
In addition, we have analyzed about 20 additional human breast cancer cell lines for increased levels of uncomplexed β-catenin. Analysis of uncomplexed β-catenin levels was performed as described in Example 3 utilizing 1 mg of total cell lysate. A monoclonal antibody to β-catenin (Transduction Laboratories) was utilized for immunoblotting. We found increased levels of uncomplexed β-catenin in 6 of these cell lines (FIG. 3A, lanes 1, 3, 4 and data not shown). We have also analyzed DKK inhibition of autocrine Wnt signaling in HCC38 breast cancer cells. […]

[2] = system: uncomplexed β-catenin; experiment: Uncomplexed β-catenin in PAI ovarian tumor cells; assay type: cell-based, human; conditions: DKK1-HA retrovirus
Description: as §1
(§2) Breast (MDAMB231, ATCC No. HTB-26) and ovarian A1847 tumor cell lines were infected with vector alone or FRP 1-HA (described in Example 1) retroviruses and marker selected. […] Breast (MDAMB231) and ovarian A1847 tumor cell lines were analyzed for uncomplexed β-catenin and FRP 1-HA by immunoblot analysis with either an anti-β-catenin antibody (Transduction Laboratories) or an anti-HA antibody (Hybridoma Center, Mount Sinai School of Medicine, New York). […]

[3] = system: uncomplexed β-catenin; experiment: Uncomplexed β-catenin in A1847 ovarian tumor cells; assay type: cell-based, human; conditions: FRP1-HA retrovirus
Description: as §1, §2

[4] = system: uncomplexed β-catenin; experiment: Uncomplexed β-catenin in MDAMB231 breast tumor cells; assay type: cell-based, human; conditions: FRP1-HA retrovirus
Description: as §1, §2

[5] = system: uncomplexed β-catenin; experiment: Uncomplexed β-catenin in HCT116 wild type or mutant β-catenin allele clones; assay type: cell-based, human; conditions: FRP1-HA transfection
Description: as §1
HCT116 parental cells and clones expressing either the wild type or mutant β-catenin allele were transfected with FRP1-HA and subjected to the GST-E-cadherin binding assay (described in Example 3) to examine the effect of FRP1 on uncomplexed β-catenin levels. Uncomplexed β-catenin was detected with anti-β-catenin antibody. The levels of FRP1 in the lysates were detected with an anti-HA antibody. […]

[6] = system: HCT116 cell lines; experiment: Tumorigenicity of HCT116 cell lines injected subcutaneously in nude mice; assay type: in vivo
Description: To assess the effects of Wnt autocrine inhibition in vivo, tumorigenicity experiments were performed utilizing parental or β-catenin wild type allele containing HCT116 cell lines, in which stable marker selected mass cultures expressing FRP1 were obtained. Parental and wild type β-catenin allele containing HCT116 cells were transfected with either vector control or FRP1. Marker selected mass cultures of each were subcutaneously injected in 6 week old nude mice at 2.5×10^6 cells per site. Tumor growth was monitored at weekly intervals as previously described (Pierce et al. (1991) Oncogene 6:1189-1194). Values in FIG. 7F represent the mean (± standard deviation) of 4 inoculation cites per cell line. […] All of these findings establish that autocrine Wnt signaling can be present in human colon carcinoma cells that harbor downstream lesions within the canonical pathway.

| Molecule | uncomplexed β-catenin levels [1] | constitutively up-regulated β-catenin [2] | constitutively up-regulated β-catenin [3] | constitutively up-regulated β-catenin [4] | uncomplexed β-catenin levels ([5]; HCT116 clone containing only the mutant β-catenin allele) | β-catenin levels ([5]; HCT116 wild type β-catenin allele-containing clone) | tumor growth ([6]; parental HCT116 cells expressing FRP1, subcutaneous in nude mice) | tumor forming ability ([6]; β-catenin wild type allele containing HCT116 cells expressing FRP1, subcutaneous in nude mice) |
| --- | --- | --- | --- | --- | --- | --- | --- | --- |
| B1 | striking reduction | inhibition of constitutively up-regulated β-catenin |  |  |  |  |  |  |
| B2 |  |  | inhibition of constitutively up-regulated β-catenin | inhibition of constitutively up-regulated β-catenin | little if any effect | dramatic reduction | no effect | striking reduction |
